{"source": "patent US20150165065A1", "about": "(AVIDBIOTICS, published 2015)", "binders": {"B1": {"name": "M13 phage pKK109 displaying MICA α3 domain with tight loop 1 insert T-3.3 (designed binder, not shown: large carriers)", "chain": "TVPPMVNRVPRGDSDLTCRASGFYPWNITLSWRQDGVSLSHDTQQWGDVLPDGNGTYQTWVATRICQGEEQRFTCYMEHSGNHSTHPVPSGK"}, "B2": {"name": "M13 phage pKK95 displaying MICA α3 domain with loop 1 insert 3.4 (designed binder, not shown: large carriers)", "chain": "TVPPMVNVTRSARGDSDHRVTCRASGFYPWNITLSWRQDGVSLSHDTQQWGDVLPDGNGTYQTWVATRICQGEEQRFTCYMEHSGNHSTHPVPSGK"}, "B3": {"name": "M13 phage pKK100 displaying MICA α3 domain with loop 1 insert 3.2sp (designed binder, not shown: large carriers)", "chain": "TVPPMVNVTSGGSGGGSTSRGDHPRTQSGGSGGGVTCRASGFYPWNITLSWRQDGVSLSHDTQQWGDVLPDGNGTYQTWVATRICQGEEQRFTCYMEHSGNHSTHPVPSGK"}, "B4": {"name": "α1-α2 variant 15 (designed binder)", "chain": "EPHSLRYNLTVLSWDGSVQSGFLTEVHLDGQPFLRCDRQKCRAKPQGQWAEDVLGNKTWDRETRDLTGWGKDLRMTLAHIKDQKEGLHSLQEIRVCEIHEDNSTRSSQHFYYDGELFLSQNLETNEWTMPQSSRAQTLAMNVRNFLKEDAMETDTHYHAMRADCLQELRRYLKSGVVLRRTVPPMVQVTRSEASGGSGDRVTITCRASQDVSTAVAWYQQKPGKAPKLLIYSASFLYSGVPSRFSGSGSGTDFTLTISSLQPEDFATYYCQQSYTTPPTFGQGTKVEIKGGSSRSSSSGGGGSGGGGEVQLVESGGGLVQPGGSLRLSCAASGFTFTSTGISWVRQAPGKGLEWVGRIYPTNGSTNYADSVKGRFTISADTSKNTAYLQMNSLRAEDTAVYYCARTYGIYDLYVDYTEYVMDYWGQGTLVTVSSGGSSRSSSSGGGGSGGGGDIQMTQSPSSLSASGGSGQITVTCRASGFYPWNITLSWRQDGVSLSHDTQQWGDVLPDGQGTYQTWVATRISQGEEQRFTCYMEHSGQHSTHPVPSGKGSHHHHHH", "notes": "His-tagged protein from insect cells, modified α1-α2 domain with an attached polypeptide"}, "B5": {"name": "α1-α2 variant 16 (designed binder)", "chain": "EPHSLRYNLTVLSWDGSVQSGFLTEVHLDGQPFLRCDRQKCRAKPQGQWAEDVLGNKTWDRETRDLTGWGKDLRMTLAHIKDQKEGLHSLQEIRVCEIHEDNSTRSSQHFYYDGELFLSQNLETLEWTMPQSSRAQTLAMNVRNFLKEDAMETDTHYHAMRADCLQELRRYLKSGVVLRRTVPPMVQVTRSEASGGSGDRVTITCRASQDVSTAVAWYQQKPGKAPKLLIYSASFLYSGVPSRFSGSGSGTDFTLTISSLQPEDFATYYCQQSYTTPPTFGQGTKVEIKGGSSRSSSSGGGGSGGGGEVQLVESGGGLVQPGGSLRLSCAASGFTFTSTGISWVRQAPGKGLEWVGRIYPTNGSTNYADSVKGRFTISADTSKNTAYLQMNSLRAEDTAVYYCARTYGIYDLYVDYTEYVMDYWGQGTLVTVSSGGSSRSSSSGGGGSGGGGDIQMTQSPSSLSASGGSGQITVTCRASGFYPWNITLSWRQDGVSLSHDTQQWGDVLPDGQGTYQTWVATRISQGEEQRFTCYMEHSGQHSTHPVPSGKGSHHHHHH", "notes": "as for B4"}, "B6": {"name": "M13 phage pKK112 displaying MICA α3 domain with tight loop 1 insert T-AMY (loop 1 from tendamistat) (designed binder, not shown: large carriers)", "chain": "TVPPMVNYQSWRYSQCRASGFYPWNITLSWRQDGVSLSHDTQQWGDVLPDGNGTYQTWVATRICQGEEQRFTCYMEHSGNHSTHPVPSGK"}}, "key": {"integrin αVβ3": {"biological_target": "T1, integrin αVβ3 (UniProt P06756 31-992; P05106 27-718)", "T1 construct": "Coated on the ELISA plate", "T1 sequence (P06756 31-992, chain 1 of 2)": "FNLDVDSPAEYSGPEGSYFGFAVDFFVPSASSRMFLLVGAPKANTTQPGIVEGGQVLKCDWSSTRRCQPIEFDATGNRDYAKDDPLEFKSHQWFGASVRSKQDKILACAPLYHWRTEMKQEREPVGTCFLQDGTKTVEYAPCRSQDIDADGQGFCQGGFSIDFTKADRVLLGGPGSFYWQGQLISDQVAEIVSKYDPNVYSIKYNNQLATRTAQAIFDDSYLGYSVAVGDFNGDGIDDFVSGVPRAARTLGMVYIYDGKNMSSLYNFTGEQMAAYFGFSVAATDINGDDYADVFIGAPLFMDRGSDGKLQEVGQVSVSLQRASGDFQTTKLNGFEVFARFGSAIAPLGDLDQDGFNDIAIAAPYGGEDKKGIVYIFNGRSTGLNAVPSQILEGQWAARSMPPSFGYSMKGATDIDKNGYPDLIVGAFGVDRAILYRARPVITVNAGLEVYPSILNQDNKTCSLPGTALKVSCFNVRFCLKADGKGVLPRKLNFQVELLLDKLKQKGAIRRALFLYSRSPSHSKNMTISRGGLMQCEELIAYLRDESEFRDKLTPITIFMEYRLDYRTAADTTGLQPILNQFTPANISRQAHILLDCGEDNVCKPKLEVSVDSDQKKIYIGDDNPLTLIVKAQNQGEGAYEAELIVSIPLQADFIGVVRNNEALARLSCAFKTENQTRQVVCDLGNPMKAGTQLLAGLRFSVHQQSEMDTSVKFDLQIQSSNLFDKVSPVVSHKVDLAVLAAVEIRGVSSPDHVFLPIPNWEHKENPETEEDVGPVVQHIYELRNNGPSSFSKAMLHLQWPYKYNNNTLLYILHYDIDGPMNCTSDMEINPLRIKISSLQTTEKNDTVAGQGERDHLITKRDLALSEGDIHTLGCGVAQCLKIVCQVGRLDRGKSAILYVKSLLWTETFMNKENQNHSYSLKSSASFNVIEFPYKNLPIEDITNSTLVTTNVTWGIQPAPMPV", "T1 sequence (P05106 27-718, chain 2 of 2)": "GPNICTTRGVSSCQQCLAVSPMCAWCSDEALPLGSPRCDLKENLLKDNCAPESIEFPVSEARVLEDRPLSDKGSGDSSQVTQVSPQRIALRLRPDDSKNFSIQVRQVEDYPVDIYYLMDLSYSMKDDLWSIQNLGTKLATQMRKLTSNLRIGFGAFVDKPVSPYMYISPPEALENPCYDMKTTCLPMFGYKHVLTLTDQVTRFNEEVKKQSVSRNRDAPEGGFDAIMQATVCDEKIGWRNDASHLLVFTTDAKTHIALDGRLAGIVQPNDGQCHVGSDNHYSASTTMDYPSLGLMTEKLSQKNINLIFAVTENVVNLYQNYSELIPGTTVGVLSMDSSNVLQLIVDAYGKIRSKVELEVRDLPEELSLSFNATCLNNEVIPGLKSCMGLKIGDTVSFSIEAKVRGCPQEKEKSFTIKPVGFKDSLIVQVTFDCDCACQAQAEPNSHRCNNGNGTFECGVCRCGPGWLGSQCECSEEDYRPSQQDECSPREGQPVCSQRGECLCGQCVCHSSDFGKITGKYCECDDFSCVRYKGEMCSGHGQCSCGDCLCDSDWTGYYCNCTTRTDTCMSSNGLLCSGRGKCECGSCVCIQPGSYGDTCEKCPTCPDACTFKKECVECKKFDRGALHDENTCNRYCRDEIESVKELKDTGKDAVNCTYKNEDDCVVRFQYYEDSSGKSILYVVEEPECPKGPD", "assay": "phage ELISA, coated integrin, anti-M13-HRP"}, "integrin αVβ5": {"biological_target": "T2, integrin αVβ5 (UniProt P06756 31-992; P18084 24-719)", "T2 construct": "Coated on the ELISA plate", "T2 sequence (P06756 31-992, chain 1 of 2)": "as the sequence (P06756 31-992, chain 1 of 2) above", "T2 sequence (P18084 24-719, chain 2 of 2)": "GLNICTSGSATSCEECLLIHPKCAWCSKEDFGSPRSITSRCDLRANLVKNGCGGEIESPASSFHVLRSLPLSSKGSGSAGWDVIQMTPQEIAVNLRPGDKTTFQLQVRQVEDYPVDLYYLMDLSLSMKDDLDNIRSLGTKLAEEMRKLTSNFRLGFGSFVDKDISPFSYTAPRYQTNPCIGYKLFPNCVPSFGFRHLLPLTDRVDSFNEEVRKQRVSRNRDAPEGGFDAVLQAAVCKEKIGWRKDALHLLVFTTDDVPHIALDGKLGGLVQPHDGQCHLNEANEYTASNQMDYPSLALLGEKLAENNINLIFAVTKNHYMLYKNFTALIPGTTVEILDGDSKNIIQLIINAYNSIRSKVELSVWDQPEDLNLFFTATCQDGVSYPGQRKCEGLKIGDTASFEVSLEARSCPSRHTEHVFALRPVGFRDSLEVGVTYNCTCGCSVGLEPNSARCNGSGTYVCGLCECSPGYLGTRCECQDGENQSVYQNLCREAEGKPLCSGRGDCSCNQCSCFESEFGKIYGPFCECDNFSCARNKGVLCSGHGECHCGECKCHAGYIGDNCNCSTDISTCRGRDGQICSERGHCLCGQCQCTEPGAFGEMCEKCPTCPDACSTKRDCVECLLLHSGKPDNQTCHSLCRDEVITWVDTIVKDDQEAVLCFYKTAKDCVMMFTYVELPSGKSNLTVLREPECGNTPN", "assay": "phage ELISA, coated integrin, anti-M13-HRP"}, "biotinylated human NKG2D [1]": {"biological_target": "T3, biotinylated human NKG2D (human, UniProt P26718 78-216, limits assumed, biotinylated (site not stated))", "T3 construct": "Surface-coated in biolayer interferometry (Octet); also called recombinant biotinylated NKG2D", "T3 sequence (looked up)": "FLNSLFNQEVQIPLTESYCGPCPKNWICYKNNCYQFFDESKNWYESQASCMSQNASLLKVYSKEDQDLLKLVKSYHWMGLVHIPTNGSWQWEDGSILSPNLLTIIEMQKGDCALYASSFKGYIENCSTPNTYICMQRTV", "assay": "BLI (Octet), Kd = kOFF/kON"}, "human NKG2D-Fc [2]": {"biological_target": "T4, human NKG2D-Fc (human, UniProt P26718 78-216, limits assumed)", "T4 construct": "construct not described; also called human NKG2D-Fc reagent; not shown: Fc part", "T4 sequence (looked up)": "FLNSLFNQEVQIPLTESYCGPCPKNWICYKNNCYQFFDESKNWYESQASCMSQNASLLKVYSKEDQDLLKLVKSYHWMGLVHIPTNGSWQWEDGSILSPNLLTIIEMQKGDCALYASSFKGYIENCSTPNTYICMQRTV", "assay": "competition ELISA, human NKG2D-Fc on coated WT sMICA", "description": "(§1) As for the NKG2D ligands (NKG2DLs) in the above example, we attached polypeptides directly to each of these 4 modified α1-α2 NKG2DLs using a linker peptide. The 4 His-tagged proteins (SEQ ID NOs.: 131-134) were expressed in insect cells and purified to characterize their NKG2D binding affinities and kinetic binding parameters. Using a competitive binding ELISA, we determined the relative NKG2D binding affinities of the 4 modified α1-α2 variants."}, "human NKG2D-Fc [3]": {"biological_target": "T4, human NKG2D-Fc", "assay": "competition ELISA, 2 nM human NKG2D-Fc on coated WT sMICA", "description": "as §1"}, "biotinylated human NKG2D [4]": {"biological_target": "T3, biotinylated human NKG2D", "assay": "BLI (Octet), coated biotinylated human NKG2D, 100 nM analyte"}, "biotinylated human NKG2D [5]": {"biological_target": "T3, biotinylated human NKG2D", "assay": "BLI (Octet)"}, "[6]": {"biological_target": "NKG2D receptor on NKL effector cells (human) (UniProt P26718)", "assay": "cell-based or functional assay"}}, "data": [{"binder": "B1", "values": [{"measurement": "αvβ3 signal", "setting": "integrin αVβ3", "value": 0.23, "unit": "OD"}, {"measurement": "αvβ5 signal", "setting": "integrin αVβ5", "value": 0.167, "unit": "OD"}]}, {"binder": "B2", "values": [{"measurement": "αvβ3 signal", "setting": "integrin αVβ3", "value": 0.345, "unit": "OD"}, {"measurement": "αvβ5 signal", "setting": "integrin αVβ5", "value": 0.232, "unit": "OD"}]}, {"binder": "B3", "values": [{"measurement": "αvβ3 signal", "setting": "integrin αVβ3", "value": 0.201, "unit": "OD"}, {"measurement": "αvβ5 signal", "setting": "integrin αVβ5", "value": 0.186, "unit": "OD"}]}, {"binder": "B4", "values": [{"measurement": "Kd", "setting": "biotinylated human NKG2D [1]", "value": 1.5, "unit": "nM"}, {"measurement": "fold better binding than WT NKG2DL (IC50)", "setting": "human NKG2D-Fc [2]", "value": 11, "unit": "fold"}, {"measurement": "IC50", "setting": "human NKG2D-Fc [3]", "value": 1.7, "unit": "nM"}, {"measurement": "koff", "setting": "biotinylated human NKG2D [4]", "value": 0.00011, "unit": "s⁻¹"}, {"measurement": "kon", "setting": "biotinylated human NKG2D [4]", "value": 70000, "unit": "M⁻¹ s⁻¹"}]}, {"binder": "B5", "values": [{"measurement": "fold affinity increase relative to WT α1-α2", "setting": "biotinylated human NKG2D [5]", "value": "~30", "unit": "fold"}, {"measurement": "fold reduction in the off-rate relative to WT", "setting": "biotinylated human NKG2D [5]", "value": 18, "unit": "fold"}, {"measurement": "NK-mediated lysis of FGFR3-expressing P815 cells (calcein release)", "setting": "[6]", "value": 15, "unit": "fold"}, {"measurement": "Kd", "setting": "biotinylated human NKG2D [1]", "value": 0.5, "unit": "nM"}, {"measurement": "fold better binding than WT NKG2DL (IC50)", "setting": "human NKG2D-Fc [2]", "value": 27, "unit": "fold"}, {"measurement": "IC50", "setting": "human NKG2D-Fc [3]", "value": 0.7, "unit": "nM"}, {"measurement": "koff", "setting": "biotinylated human NKG2D [4]", "value": "9e-05", "unit": "s⁻¹"}, {"measurement": "kon", "setting": "biotinylated human NKG2D [4]", "value": 200000, "unit": "M⁻¹ s⁻¹"}]}, {"binder": "B6", "values": [{"measurement": "αvβ3 signal", "setting": "integrin αVβ3", "value": 0.46, "unit": "OD"}, {"measurement": "αvβ5 signal", "setting": "integrin αVβ5", "value": 0.515, "unit": "OD"}]}]}
